This is an account of results in paper PMC9042962.

For this assay, the target named is GFP-BLM (full-length Bloom helicase, GFP fusion protein) (human) (UniProt P54132). Description: photobleaching step counting (single-molecule TIRFM, DNA curtain); GFP-tagged BLM (0.2 nM injected) bound to the free ends (30-nt 3' ssDNA overhang) of lambda-DNA tethered to a lipid bilayer; number of GFP photobleaching steps per end-bound complex; BLM buffer (20 mM Tris-HCl pH 7.5, 1 mM MgCl2, 2 mM ATP, 1 mM DTT, 0.2 mg/ml BSA), 37 °C; oligomer counted on DNA ends.

What is called stoichiometry N is the number of molecules, sites or subunits per partner or assembly. In turn, “GFP-BLM (full-length Bloom helicase, GFP fusion protein), P54132 1-1417 (enzyme; other documents disagree on this pair)” gave a stoichiometry N of 1 to 6 monomers and a stoichiometry N (BLM monomers per DNA end) of 3.6.
